Test results published in the supplement of paper PMC12764529.
± gives the half width of the 95% confidence interval.

Test: folding stability dG unfold from chymotrypsin proteolysis; higher = more stable
Summary of the method: (§1)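 Designed mini-proteins with no cysteine and under 80 residues were kept only if AlphaFold2 dimer inter-PAE was above 15. In a PA-tagged cDNA display construct, they were digested with trypsin and chymotrypsin and then sequenced. K50 was inferred by Bayesian fitting of counts, and unfolding free energy was derived per protease or combined against a sequence-predicted unfolded-state K50 and a shared folded-state K50.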

Point of comparison: “SAGGSAGGNWKVEIWPNGEQQEYTIDEIKKQLKNDIPPNYMIRVKGSGKWIPVRELLKEAGIPLSAGGSAGG [r6_937_TrROS]”, “folding stability dG unfold” value 0.793 ± 0.11 kcal/mol. Against it:
- SASAAEEIERALLPLPNIPTAPLATFTLPDAPVEVVSYDPVTGRVLVRLTGTGALFVFDPETGEAELLPSAG [r14_359_TrMRF] — higher, 2.62 ± 0.054 kcal/mol
- SAGGSAGGSAGGKPGEKKRYRFPAPKFELVSKVKVRVKVLNEDTNELYEKEVEVFVLKLTSAGGSAGGSAGG [r7_64_TrROS_Hall] — higher, 2.77 ± 0.16 kcal/mol
- SEKIKELIKKLAEELNLKIVKIEKKEDGKIIIEFENGIKIEIEIDPEKKNKIKIKIEKTKNGKLKITIEPSA [r9_809_TrROS_Hall] — higher, 2.65 ± 0.14 kcal/mol
- SMKTVTLNFPSLSEEEVRALAEELEATGRYRVEKIDSSTPNIKVTVLEEPPEPRPPPPPALVRDADARAASA [r9_830_JUSTAS] — higher, 1.83 ± 0.12 kcal/mol
- SAGGKTYKIKVTVEVKNENGETEKKEYVIEVKENKTPEEIAEELKKKLGVEKVEIVDPKTGKKYTIELSAGG [r13_663_TrROS_Hall] — higher, 3.185 ± 0.029 kcal/mol
- SAGGSAGGSAGGNIKVDDVHHNPNNYRQVKIDLPGGKPIKIWMSMDDPNNVKEIAKEIFSAGGSAGGSAGGS [r10_472_TrROS] — lower, -0.414 ± 0.18 kcal/mol
- SAGGMKVKVEVEITVNGKLVKKLTVEMSVEELKKLIEELLPPGAKVEVKIVEVKVEEVEVYELPEEEKSAGG [r13_491_TrROS_Hall] — higher, 2.21 ± 0.18 kcal/mol
- SAGGPTAPAGGPLLAPVPVVVPVPVTLTFPNLTPEQAEALAEYFRSLGAEVSYDSATGTLTVRDYRTSAGGS [r16_765_TrMRF] — higher, 3.894 ± 0.014 kcal/mol
- SAGGMTVERVPGSGVYTLTFPDGSTETLEIPPEENAVVYAKEGAGTVTVKLAPPDDPEALAAAAALSSAGGS [r16_623_JUSTAS] — lower, 0.357 ± 0.069 kcal/mol
- SWTFPILIRFPFDDPEDLDKAREMAEDLVRYLAEEFGWPVKIDKVKYERNPENGWVWIRAEITVTPPDDVSA [r9_105_TrROS] — higher, 5.31 ± 0.098 kcal/mol
- SAMTLRIELTKEELEKLIKELKPGDEVELEIEVNGRTYRIRAKITRIERVDDKVYIEVELEIEELPEEESAG [r14_335_TrROS_Hall] — higher, 4.75 ± 0.064 kcal/mol
- SAGGSAGGSAGGLEEIRENGEALVFYPDGRVYRVDLKTGKITPPPGFKPENIVRVVFVKKSAGGSAGGSAGG [r7_566_TrMRF] — lower, 0.0292 ± 0.14 kcal/mol
- SAGGSAGGSSPDWSVKKSTVTVTITFPEEKYFEPETKKEVAKRPVITIEIEIEVVETLPASLISAGGSAGGS [r12_600_JUSTAS] — higher, 1.44 ± 0.096 kcal/mol
- SAGGSAGGSAGGRKLAIKIEIEEVKTETRIRPDGKTETRTELRIKIEIRPVPHPDDPELLSAGGSAGGSAGG [r7_523_TrROS_Hall] — higher, 1.95 ± 0.056 kcal/mol
- SMKKILIIVPKEMSEEEVEALVKELLEKLGLPEGAEVEILTEEELEKNPELKKKLEEAEKKGADLVIIIPSA [r9_1147_TrROS_Hall] — higher, 3 ± 0.2 kcal/mol
- SAGGSAGGSAGHMVKVKITKSKGGSSLPLEEKEIELDIDEEKLEELKEEAKKKGYTVEIESAGGSAGGSAGG [r17_18_JUSTAS] — lower, 0.0362 ± 0.15 kcal/mol
- SAGGSAGGSAGGSLAFEGSFRFRKLKLTFKRKLTRTRPDGEPEEFEEELELEVEVVLPVSAGGSAGGSAGGS [r4_418_TrMRF] — higher, 4.84 ± 0.15 kcal/mol
- SAGGSAGGSAWKKFMLEFPDGRPFMIEIDPDEPGRVKIYPPGNGKEEEIPPDDLKDLKITASAGGSAGGSAG [r3_451_TrROS] — within error, 0.718 ± 0.27 kcal/mol
- SAGMNLKIEVSVTPQEFELVEKDEEGNLIKPVKQKATVVTTTTTLPDGTVTTTRSLFLDGELVATSTGSAGG [r19_44_JUSTAS] — higher, 1.03 ± 0.044 kcal/mol
- SAMKLVTLEDGTVIETENLSLEEIKERFGGGSISVSDVPPSPAFRVESEEEREALEKEVGPGFVVVEEGSAG [r14_445_JUSTAS] — lower, 0.108 ± 0.11 kcal/mol
- SAGGSAGGSAKPRVKIVEVDEEKKRVLVKTEDGEVVELEGLTPEQIEELAKALGADEVELVSAGGSAGGSAG [r3_78_TrROS_Hall] — higher, 1.53 ± 0.095 kcal/mol
- SAGGMPKPVTLPAVIELGAGPAIAVEEFPETGKLVFVFPPTHRIFVFDPNGKLVAEVDVPPDVPVSAVSAGG [r13_507_TrMRF] — within error, 0.973 ± 0.31 kcal/mol
- SPNWKIVEITEMERTDGRVTIKIKIKVPDGRIYIFMPNGKIIEEVPLGDDVELTITFPPNNWPIYIFVLDSA [r9_917_TrROS] — higher, 4.69 ± 0.19 kcal/mol
- PKEIIEFAKKNGFKVKIEPVKVGSEEKAKKLAEEIKKKNNGKVFIIKNPKTGEAVYRIEIYPLKVPKNKKLS [r1_179_TrMRF] — higher, 2.1 ± 0.22 kcal/mol
- SAGGSAGKNKPFPLPILIEAHPDDPEEAAERLKAELEALFPGPIKVEIVEVDPEKGIITAIVTVDGSAGGSA [r15_1024_TrMRF] — higher, 1.58 ± 0.073 kcal/mol
- SAGGSSITVTDETTVEVSPTGSPTGPPVATVTTTTSTTTTTYYDPKTGTSTETTTTTTTTTTSTGASAGGSA [r2_269_JUSTAS] — lower, 0.192 ± 0.11 kcal/mol
- SSSSMKTITLEKKITSPEEAEALREELLKKGYEVEVKVYPHPDSYIAKITVTIEVPPPPLSPTNPSALLKSA [r9_863_JUSTAS] — within error, 0.913 ± 0.2 kcal/mol
- SASMTYTVTVTVSVKNPDGTPIGTIPITRTMNLDEAKVIVEKEIKKTVDELFPGKPANVTVDTTVTPLPSAG [r14_570_JUSTAS] — higher, 1.6 ± 0.42 kcal/mol
- SMYRIRLPSNKVFTIDVPPDGTVEITLPNGKKLTLKLESEEDILALAEILSKLFPDDPAEIEPIPLEYYRSA [r9_1206_TrMRF] — higher, 1.53 ± 0.19 kcal/mol
- SAGGSAGGSAGKKTYKLVIPVKPDKTVEEIAEEVKKLLGPGSKVEVEEKEDGFATVYVESSAGGSAGGSAGG [r17_20_TrMRF] — within error, 0.656 ± 0.093 kcal/mol
- SAGGSAGGSAGAPPEGAKPVEEETVPIEIQMRNDDDGKPIMPIKFEVRVYKFPDGIFISISAGGSAGGSAGG [r11_415_TrROS] — higher, 2.91 ± 0.042 kcal/mol
- SMTISIPGGITITIEPKPNSYTLTVSFPDGSTVTRPVDPSDLTSAIKAVIREALRRADPNITEEEIEKLLSA [r9_634_JUSTAS] — higher, 6.07 ± 0.17 kcal/mol
- SAGGSAGGSGIEELKKAGFEIVRIERKEDGTLRLTVRNKETEETKTIEITLPEAEVELVEPPESAGGSAGGS [r12_166_TrROS_Hall] — higher, 3.74 ± 0.076 kcal/mol
- SAGGSAGGSIKPGQKVKIEIKVEEVDGKLVITAKVYNKDGKLIYEAEIVIENGKIKEVKITPPSAGGSAGGS [r12_264_TrROS_Hall] — higher, 3.11 ± 0.31 kcal/mol
- SAGGKTIMHMYMNPNGWFIRAKIKLDPDGKWKITDVEIYPMEMKYEDPNGKPREMPMFMIKIRIKPDSAGGS [r8_270_TrROS] — higher, 4.26 ± 0.046 kcal/mol
- SAGGSSSSLIGEIKLPSNVTIKIERSSKGVRTAVVTFPETGKVVTLPLDPNVSIEEIIEKVKEIVEKKSAGG [r13_624_JUSTAS] — higher, 1.29 ± 0.043 kcal/mol
- SAGGSMVVTVSTDSTSEPTTVITITIPPELGNLTDEEKKAIAEEIAKKYPNTKFTFTPTTITITRKSAGGSA [r2_256_JUSTAS] — higher, 2.81 ± 0.054 kcal/mol
- SAGMPVEIPLVIRLTRYRDLPDGPELAEVRELPLPLRADPSELDNPELLAFIREALEKLPDEIREVEIASAG [r5_849_TrMRF] — within error, 0.757 ± 0.11 kcal/mol
- SAGGPLVVEAKVEGDTVTIRLPNGEEFTAHPDATLFLPNGERVFFEPVSDDVVIATVVPLPEDAEFPSAGGS [r16_277_TrMRF] — lower, -0.0303 ± 0.13 kcal/mol
- SFEIEILDVDPDGWIVITIRYPSPDGKPLTPEEMEEIAEEIALELFPQFPDFKVTIEHDPESGTITIVIRSA [r9_485_TrROS] — higher, 3.59 ± 0.3 kcal/mol
- SAGGSAGGSAGKKKIKLLIFDKKTNKLYVVEVELTKDGKIKITKIKEIYEVKPGEKLKLLSAGGSAGGSAGG [r11_750_TrROS_Hall] — higher, 1.3 ± 0.26 kcal/mol

Test: folding stability dG unfold from trypsin proteolysis; higher = more stable
Summary of the method: as §1

Point of comparison: “SAGGSAGGSAGGNIKVDDVHHNPNNYRQVKIDLPGGKPIKIWMSMDDPNNVKEIAKEIFSAGGSAGGSAGGS [r10_472_TrROS]”, “folding stability dG unfold” value -0.191 ± 0.048 kcal/mol. Against it:
- SASAAEEIERALLPLPNIPTAPLATFTLPDAPVEVVSYDPVTGRVLVRLTGTGALFVFDPETGEAELLPSAG [r14_359_TrMRF] — higher, 2.56 ± 0.16 kcal/mol
- SAGGSAGGSAGGKPGEKKRYRFPAPKFELVSKVKVRVKVLNEDTNELYEKEVEVFVLKLTSAGGSAGGSAGG [r7_64_TrROS_Hall] — higher, 1.12 ± 0.045 kcal/mol
- SEKIKELIKKLAEELNLKIVKIEKKEDGKIIIEFENGIKIEIEIDPEKKNKIKIKIEKTKNGKLKITIEPSA [r9_809_TrROS_Hall] — higher, 1.67 ± 0.11 kcal/mol
- SMKTVTLNFPSLSEEEVRALAEELEATGRYRVEKIDSSTPNIKVTVLEEPPEPRPPPPPALVRDADARAASA [r9_830_JUSTAS] — higher, 1.08 ± 0.088 kcal/mol
- SAGGKTYKIKVTVEVKNENGETEKKEYVIEVKENKTPEEIAEELKKKLGVEKVEIVDPKTGKKYTIELSAGG [r13_663_TrROS_Hall] — higher, 1.9 ± 0.052 kcal/mol
- SAGGMKVKVEVEITVNGKLVKKLTVEMSVEELKKLIEELLPPGAKVEVKIVEVKVEEVEVYELPEEEKSAGG [r13_491_TrROS_Hall] — higher, 1.81 ± 0.13 kcal/mol
- SAGGPTAPAGGPLLAPVPVVVPVPVTLTFPNLTPEQAEALAEYFRSLGAEVSYDSATGTLTVRDYRTSAGGS [r16_765_TrMRF] — higher, 2.28 ± 0.061 kcal/mol
- SAGGMTVERVPGSGVYTLTFPDGSTETLEIPPEENAVVYAKEGAGTVTVKLAPPDDPEALAAAAALSSAGGS [r16_623_JUSTAS] — lower, -0.344 ± 0.083 kcal/mol
- SWTFPILIRFPFDDPEDLDKAREMAEDLVRYLAEEFGWPVKIDKVKYERNPENGWVWIRAEITVTPPDDVSA [r9_105_TrROS] — higher, 3.62 ± 0.08 kcal/mol
- SAMTLRIELTKEELEKLIKELKPGDEVELEIEVNGRTYRIRAKITRIERVDDKVYIEVELEIEELPEEESAG [r14_335_TrROS_Hall] — higher, 4.46 ± 0.11 kcal/mol
- SAGGSAGGSAGGLEEIRENGEALVFYPDGRVYRVDLKTGKITPPPGFKPENIVRVVFVKKSAGGSAGGSAGG [r7_566_TrMRF] — higher, 0.493 ± 0.1 kcal/mol
- SAGGSAGGSSPDWSVKKSTVTVTITFPEEKYFEPETKKEVAKRPVITIEIEIEVVETLPASLISAGGSAGGS [r12_600_JUSTAS] — higher, 1.65 ± 0.067 kcal/mol
- SAGGSAGGSAGGRKLAIKIEIEEVKTETRIRPDGKTETRTELRIKIEIRPVPHPDDPELLSAGGSAGGSAGG [r7_523_TrROS_Hall] — higher, 2.99 ± 0.12 kcal/mol
- SMKKILIIVPKEMSEEEVEALVKELLEKLGLPEGAEVEILTEEELEKNPELKKKLEEAEKKGADLVIIIPSA [r9_1147_TrROS_Hall] — higher, 3.39 ± 0.32 kcal/mol
- SAGGSAGGSAGHMVKVKITKSKGGSSLPLEEKEIELDIDEEKLEELKEEAKKKGYTVEIESAGGSAGGSAGG [r17_18_JUSTAS] — higher, 0.0424 ± 0.11 kcal/mol
- SAGGSAGGSAGGSLAFEGSFRFRKLKLTFKRKLTRTRPDGEPEEFEEELELEVEVVLPVSAGGSAGGSAGGS [r4_418_TrMRF] — higher, 3.77 ± 0.09 kcal/mol
- SAGGSAGGSAWKKFMLEFPDGRPFMIEIDPDEPGRVKIYPPGNGKEEEIPPDDLKDLKITASAGGSAGGSAG [r3_451_TrROS] — within error, -0.0506 ± 0.36 kcal/mol
- SAGMNLKIEVSVTPQEFELVEKDEEGNLIKPVKQKATVVTTTTTLPDGTVTTTRSLFLDGELVATSTGSAGG [r19_44_JUSTAS] — higher, 0.716 ± 0.015 kcal/mol
- SAMKLVTLEDGTVIETENLSLEEIKERFGGGSISVSDVPPSPAFRVESEEEREALEKEVGPGFVVVEEGSAG [r14_445_JUSTAS] — higher, 0.578 ± 0.032 kcal/mol
- SAGGSAGGSAKPRVKIVEVDEEKKRVLVKTEDGEVVELEGLTPEQIEELAKALGADEVELVSAGGSAGGSAG [r3_78_TrROS_Hall] — higher, 0.174 ± 0.07 kcal/mol
